# According to publication PMC11054746, “GRPR-Antagonists Carrying DOTAGA-Chelator via Positively Charged Linkers: Perspectives for Prostate Cancer Theranostics” (Pharmaceutics, 2024):
# Like-named read-outs stand apart in the source and are kept apart here.
# Columns and labels:
# in vivo = assay: in vivo; set-up: species or system BALB/C nu/nu mice; conditions: BALB/C nu/nu, mouse, iv, total radioactivity; for tissue to tissue ratio at 4 h: Tumor-to-organ ratio
# Experimental: (§1) All in vivo studies were performed following European guidelines on laboratory animal protection. The in vivo stability experiments were carried out in healthy male Swiss albino mice; the study protocol was approved by the Department of Agriculture and Veterinary Service of the Prefecture of Athens (protocol number #440448, 01-06-2021). The biodistribution, in vivo targeting specificity assay, and SPECT/CT imaging experiments were carried out on BALB/C nu/nu mice. The Ethics Committee for Animal Research in Uppsala (Sweden) approved the latter in vivo animal studies (permit number 00473/21). The BALB/C nu/nu mice were implanted with GRPR-positive prostate cancer xenografts by subcutaneous injection on the right hind leg of PC-3 cells suspended in PBS (7 × 10^6 cells/mouse) four weeks before the biodistribution studies.
# (§2) The mice were iv injected with 40 pmol peptide (30 kBq in a total volume of 100 μL 1% bovine serum albumin (BSA) in PBS). […] At the indicated time points, mice were euthanized under anesthesia. The organs of interest were collected, weighed, and the sample radioactivity content was measured on the gamma counter. The percentage of injected activity per gram (%IA/g) of collected tumors, organs and tissues, the %IA for the remaining gastrointestinal tract and carcass, as well as the tumor-to-organ ratios (T/O) were calculated.
# PC-3 xenografts = assay: in vivo; set-up: species or system BALB/C nu/nu mice; conditions: mouse; for Kidneys uptake: BALB/C nu/nu
# Experimental: as §1, §2
# [1] = Radiochemical stability: indium release in PBS or with EDTA excess, by iTLC; format: physicochemical; conditions: room temperature, 0.2 M citric acid, mean ± sd, n = 3
# Experimental: The radiochemical yield was analyzed with instant thin layer chromatography (iTLC) strips (Agilent Technologies, Santa Clara, CA, USA), using 0.2 M citric acid buffer as a mobile phase (Rf = 0 for the radiolabeled peptide and Rf = 1 for free indium). The iTLC results were analyzed using Cyclone® Plus Phosphorimager (PerkinElmer, Hägersten, Sweden). The radiochemical stability was determined by incubating the radiolabeled compounds with phosphate-buffered saline (PBS) or a 1000-fold molar excess of ethylenediaminetetraacetic acid (EDTA) for 1 h at room temperature. The percentage of indium release was assessed by iTLC using 0.2 M citric acid as mobile phase. Stability tests were performed in triplicate for each compound.
# PC-3 cells = assay: Cellular internalization; format: cell-based, human; conditions: 1 nM, acid wash, mean of 3 dishes ± sd, normalized to maximum cell association at 24 h
# Experimental: For the cellular internalization assay, PC-3 cells (1 × 10^6 cells/dish) were used. The cells were incubated with 1 mL (1 nM) of solution containing the radiolabeled peptide under evaluation. At the 4 h and 24 h time points, the cells were treated with an acid wash (0.2 M glycine buffer with 0.15 M NaCl and 4 M urea, pH 2) for 5 min on ice to remove the membrane-bound peptide. After collection of acid fractions, the cells were treated with 1 M NaOH for at least 30 min and the cell debris were scraped and collected. The activity content in samples was measured using the gamma counter.
# human GRPR = target: T1, human GRPR (Homo sapiens, UniProt P30550); assay: Affinity measurements in real time (LigandTracer) on PC-3 cells; format: binding; conditions: room temperature, 1:2 fitting interaction model
# T1 construct: host or cells: PC-3 human prostate adenocarcinoma cells
# T1 sequence (P30550 whole entry): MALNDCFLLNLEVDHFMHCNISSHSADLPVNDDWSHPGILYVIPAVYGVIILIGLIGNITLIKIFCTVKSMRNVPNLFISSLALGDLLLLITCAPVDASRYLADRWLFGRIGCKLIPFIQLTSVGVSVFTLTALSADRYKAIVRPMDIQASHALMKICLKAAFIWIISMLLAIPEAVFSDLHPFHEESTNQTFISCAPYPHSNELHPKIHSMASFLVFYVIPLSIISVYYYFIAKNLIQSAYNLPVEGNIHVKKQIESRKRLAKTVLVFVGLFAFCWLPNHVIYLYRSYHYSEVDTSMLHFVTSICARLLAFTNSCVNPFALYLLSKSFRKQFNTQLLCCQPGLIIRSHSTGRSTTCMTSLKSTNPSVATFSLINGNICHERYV
# Experimental: The association curves were recorded at 1 nM and 3 nM of the radiolabeled peptides for 300 min. After reaching the plateau, the medium containing the radioligand was replaced with fresh medium and the dissociation curve was measured for about 16 h. The obtained sensorgrams were analyzed using TracerDrawer (Ridgeview Instruments AB, Uppsala, Sweden) and the dissociation constants (KD) were calculated.
# [2] = 40 pmol, Carcass (whole body) uptake
# [3] = 40 pmol, GI (gastrointestinal tract, GIT) uptake
compound,measurement,setting,value
"CC(C)C[C@H](NC(=O)C[C@H](O)[C@H](CC(C)C)NC(=O)[C@H](Cc1c[nH]cn1)NC(=O)CN(C)C(=O)[C@@H](NC(=O)[C@H](C)NC(=O)[C@H](Cc1c[nH]c2ccccc12)NC(=O)[C@H](CCC(N)=O)NC(=O)[C@@H](Cc1ccccc1)NC(=O)COCCOCCNC(=O)CCC(C(=O)O)N1CCN(CC(=O)O)CCN(CC(=O)O)CCN(CC(=O)O)CC1)C(C)C)C(N)=O (stereo partly drawn) [[^111In]In-AU-RM26-M1, [^111In]In-DOTAGA-PEG2-[Sar^11]RM26, metal not drawn, reference compound]",tissue uptake at 4 h,"in vivo; 40 pmol, Blood uptake",0.04 ± 0.01 %ID/g
same,tissue uptake at 4 h,"in vivo; 40 pmol, Bone uptake",0.05 ± 0.01 %ID/g
same,tissue uptake dose at 4 h,in vivo; [2],1.3 ± 0.5 %ID
same,tissue uptake dose at 4 h,in vivo; [3],0.9 ± 0.1 %ID
same,tissue uptake at 4 h,"in vivo; 40 pmol, Kidneys uptake",6.4 ± 0.6 %ID/g
same,tissue uptake at 4 h,"in vivo; 40 pmol, Liver uptake",0.2 ± 0.1 %ID/g
same,tissue uptake at 4 h,"in vivo; 40 pmol, Lungs uptake",0.08 ± 0.05 %ID/g
same,tissue uptake at 4 h,"in vivo; 40 pmol, Muscle uptake",0.04 ± 0.02 %ID/g
same,tissue uptake at 4 h,"in vivo; 40 pmol, Pancreas uptake",0.2 ± 0.1 %ID/g
same,tissue uptake at 4 h,"in vivo; 40 pmol, Small Int uptake",0.1 ± 0.04 %ID/g
same,tissue uptake at 4 h,"in vivo; 40 pmol, Spleen uptake",0.08 ± 0.02 %ID/g
same,tissue to tissue ratio at 4 h,"in vivo; 40 pmol, Blood",133 ± 26
same,tissue to tissue ratio at 4 h,"in vivo; 40 pmol, Bone",117 ± 16
same,tissue to tissue ratio at 4 h,"in vivo; 40 pmol, Kidneys",0.9 ± 0.2
same,tissue to tissue ratio at 4 h,"in vivo; 40 pmol, Liver",39 ± 5
same,tissue to tissue ratio at 4 h,"in vivo; 40 pmol, Lungs",81 ± 25
same,tissue to tissue ratio at 4 h,"in vivo; 40 pmol, Muscle",234 ± 154
same,tissue to tissue ratio at 4 h,"in vivo; 40 pmol, Pancreas",27 ± 4
same,tissue to tissue ratio at 4 h,"in vivo; 40 pmol, Small Int",57 ± 7
same,tissue to tissue ratio at 4 h,"in vivo; 40 pmol, Spleen",72 ± 9.5
same,Kidneys uptake,"PC-3 xenografts; iv, 40 pmol, 4 h",~ 6.5 %IA/g
same,Tumor uptake,"PC-3 xenografts; iv, 40 pmol, 4 h",6 ± 2 %IA/g
"CC(C)C[C@H](NC(=O)C[C@H](O)[C@H](CC(C)C)NC(=O)[C@H](Cc1c[nH]cn1)NC(=O)CN(C)C(=O)[C@@H](NC(=O)[C@H](C)NC(=O)[C@H](Cc1c[nH]c2ccccc12)NC(=O)[C@H](CCC(N)=O)NC(=O)[C@@H](Cc1ccccc1)NC(=O)CN1CCC(NC(=O)COCCOCCNC(=O)CCC(C(=O)O)N2CCN(CC(=O)O)CCN(CC(=O)O)CCN(CC(=O)O)CC2)CC1)C(C)C)C(N)=O (stereo partly drawn) [[^111In]In-AU-RM26-M2, metal not drawn]","released [111In]In3+, ×1000 EDTA (1 h)",[1]; 1000-fold molar excess of EDTA,5.7 ± 0.7% (3)
same,"released [111In]In3+, PBS","[1]; incubation in PBS, 1 h",5.7 ± 0.2% (3)
same,tissue uptake at 4 h,"in vivo; 40 pmol, Blood uptake",0.003 ± 0.002 %ID/g
same,tissue uptake at 24 h,"in vivo; 40 pmol, Blood uptake",0.01 ± 0.002 %ID/g
same,tissue uptake at 4 h,"in vivo; 40 pmol, Bone uptake",0.05 ± 0.03 %ID/g
same,tissue uptake at 24 h,"in vivo; 40 pmol, Bone uptake",0.04 ± 0.02 %ID/g
same,tissue uptake dose at 4 h,in vivo; [2],0.8 ± 0.1 %ID
same,tissue uptake dose at 24 h,"in vivo; 40 pmol, Carcass uptake",0.5 ± 0.2 %ID
same,tissue uptake dose at 4 h,in vivo; [3],0.8 ± 0.5 %ID
same,tissue uptake dose at 24 h,in vivo; [3],0.13 ± 0.03 %ID
same,tissue uptake at 4 h,"in vivo; 40 pmol, Kidneys uptake",5 ± 1 %ID/g
same,tissue uptake at 24 h,"in vivo; 40 pmol, Kidneys uptake",4.1 ± 0.4 %ID/g
same,tissue uptake at 4 h,"in vivo; 40 pmol, Liver uptake",0.12 ± 0.01 %ID/g
same,tissue uptake at 24 h,"in vivo; 40 pmol, Liver uptake",0.11 ± 0.01 %ID/g
same,tissue uptake at 4 h,"in vivo; 40 pmol, Lungs uptake",0.05 ± 0.01 %ID/g
same,tissue uptake at 24 h,"in vivo; 40 pmol, Lungs uptake",0.05 ± 0.02 %ID/g
same,tissue uptake at 4 h,"in vivo; 40 pmol, Muscle uptake",0.02 ± 0.01 %ID/g
same,tissue uptake at 24 h,"in vivo; 40 pmol, Muscle uptake",0.02 ± 0.01 %ID/g
same,tissue uptake at 4 h,"in vivo; 40 pmol, Pancreas uptake",0.37 ± 0.08 %ID/g
same,tissue uptake at 24 h,"in vivo; 40 pmol, Pancreas uptake",0.15 ± 0.03 %ID/g
same,tissue uptake at 4 h,"in vivo; 40 pmol, Small Int uptake",0.1 ± 0.06 %ID/g
same,tissue uptake at 24 h,"in vivo; 40 pmol, Small Int uptake",0.06 ± 0.03 %ID/g
same,tissue uptake at 4 h,"in vivo; 40 pmol, Spleen uptake",0.07 ± 0.02 %ID/g
same,tissue uptake at 24 h,"in vivo; 40 pmol, Spleen uptake",0.07 ± 0.01 %ID/g
same,tissue uptake at 4 h,"in vivo; 40 pmol, Tumor uptake",7 ± 2 %ID/g
same,tissue uptake at 24 h,"in vivo; 40 pmol, Tumor uptake",4.9 ± 0.7 %ID/g
same,tissue uptake dose at 4 h,"in vivo; Carcass uptake, Block",1 ± 0.5 %ID
same,tissue uptake dose at 4 h,"in vivo; GI (gastrointestinal tract, GIT) uptake, Block",0.46 ± 0.03 %ID
same,kidney uptake at 24 h pi retained as % of the 4 h renal value,PC-3 xenografts,> 80%
same,pancreas uptake at 24 h pi as % of the initial 4 h uptake,PC-3 xenografts,40%
same,tumor uptake at 24 h pi as % of the 4 h value,PC-3 xenografts,70%
same,internalized fraction at 24 h,PC-3 cells,23 ± 2%
"CC(C)C[C@H](NC(=O)C[C@H](O)[C@H](CC(C)C)NC(=O)[C@H](Cc1c[nH]cn1)NC(=O)CN(C)C(=O)[C@@H](NC(=O)[C@H](C)NC(=O)[C@H](Cc1c[nH]c2ccccc12)NC(=O)[C@H](CCC(N)=O)NC(=O)[C@@H](Cc1ccccc1)NC(=O)[C@H](CCCNC(=N)N)NC(=O)COCCOCCNC(=O)CCC(C(=O)O)N1CCN(CC(=O)O)CCN(CC(=O)O)CCN(CC(=O)O)CC1)C(C)C)C(N)=O (stereo partly drawn) [[^111In]In-AU-RM26-M3, metal not drawn]",Kd,human GRPR; read-out: KD1,245 pM
same,Kd,human GRPR; read-out: KD2,1400 pM
same,tissue uptake at 4 h,"in vivo; 40 pmol, Blood uptake",0.024 ± 0.002 %ID/g
same,tissue uptake at 4 h,"in vivo; 40 pmol, Bone uptake",0.06 ± 0.01 %ID/g
same,tissue uptake dose at 4 h,in vivo; [2],1.7 ± 0.3 %ID
same,tissue uptake dose at 4 h,in vivo; [3],1.3 ± 0.9 %ID
same,tissue uptake at 4 h,"in vivo; 40 pmol, Kidneys uptake",3.4 ± 0.2 %ID/g
same,tissue uptake at 4 h,"in vivo; 40 pmol, Liver uptake",0.17 ± 0.01 %ID/g
same,tissue uptake at 4 h,"in vivo; 40 pmol, Lungs uptake",0.12 ± 0.01 %ID/g
same,tissue uptake at 4 h,"in vivo; 40 pmol, Muscle uptake",0.03 ± 0.01 %ID/g
same,tissue uptake at 4 h,"in vivo; 40 pmol, Pancreas uptake",0.06 ± 0.01 %ID/g
same,tissue uptake at 4 h,"in vivo; 40 pmol, Small Int uptake",0.08 ± 0.03 %ID/g
same,tissue uptake at 4 h,"in vivo; 40 pmol, Spleen uptake",0.08 ± 0.01 %ID/g
same,tissue uptake at 4 h,"in vivo; 40 pmol, Tumor uptake",2.5 ± 0.6 %ID/g
same,tissue to tissue ratio at 4 h,"in vivo; 40 pmol, Blood",104
same,tissue to tissue ratio at 4 h,"in vivo; 40 pmol, Bone",39 ± 8
same,tissue to tissue ratio at 4 h,"in vivo; 40 pmol, Kidneys",0.7 ± 0.2
same,tissue to tissue ratio at 4 h,"in vivo; 40 pmol, Liver",15 ± 4.5
same,tissue to tissue ratio at 4 h,"in vivo; 40 pmol, Lungs",33 ± 22
same,tissue to tissue ratio at 4 h,"in vivo; 40 pmol, Muscle",75 ± 18
same,tissue to tissue ratio at 4 h,"in vivo; 40 pmol, Pancreas",45 ± 15
same,tissue to tissue ratio at 4 h,"in vivo; 40 pmol, Small Int",35 ± 15
same,tissue to tissue ratio at 4 h,"in vivo; 40 pmol, Spleen",31 ± 9
same,Kidneys uptake,"PC-3 xenografts; iv, 40 pmol, 4 h",~ 3.5 %IA/g
